According to paper PMC6199135, “Differing isoforms of the cobalamin binding photoreceptor AerR oppositely regulate photosystem expression” (eLife, 2018):

T1: CrtJ (Rhodobacter capsulatus, UniProt P26167 1-469, labeled using RED-NHS protein labeling kit (Nanotemper))
T1 construct: CrtJ, redox-responding transcription factor (aerobic repressor of photosystem genes) of Rhodobacter capsulatus; also called SUMO-CrtJ; PpsR (name in some other species); source: recombinant protein from plasmid pSUMO-CrtJ (PMID: 22715852)
T1 sequence (looked up): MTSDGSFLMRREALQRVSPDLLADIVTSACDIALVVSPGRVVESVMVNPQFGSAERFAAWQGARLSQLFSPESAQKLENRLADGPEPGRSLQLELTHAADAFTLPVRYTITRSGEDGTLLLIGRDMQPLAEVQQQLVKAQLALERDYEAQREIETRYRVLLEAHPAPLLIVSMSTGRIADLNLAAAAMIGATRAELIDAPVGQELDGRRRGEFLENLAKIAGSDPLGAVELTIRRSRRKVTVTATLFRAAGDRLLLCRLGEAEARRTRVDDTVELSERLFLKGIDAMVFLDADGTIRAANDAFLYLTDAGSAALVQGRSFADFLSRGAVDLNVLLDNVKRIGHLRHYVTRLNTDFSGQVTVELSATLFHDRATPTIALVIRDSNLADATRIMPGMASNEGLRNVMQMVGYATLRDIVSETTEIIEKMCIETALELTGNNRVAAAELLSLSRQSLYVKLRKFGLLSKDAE


Tests used:
[1] = target: CrtJ (Rhodobacter capsulatus) (UniProt P26167); experiment: MST; Monolith NT.115; RED-NHS-labeled CrtJ kept constant (200 or 500 nM), AerR varied from µM to nM; 20 mM Tris-HCl pH 8.0, 200 mM NaCl; AerR with bound hydroxyl-Cbl (OH-Cbl)
[2] = target: CrtJ (Rhodobacter capsulatus) (UniProt P26167); experiment: MST; Monolith NT.115; RED-NHS-labeled CrtJ kept constant (200 or 500 nM), AerR varied from µM to nM; 20 mM Tris-HCl pH 8.0, 200 mM NaCl; SAerR with bound Adenosyl-Cbl (Ado-Cbl)
CrtJ = target: T1, CrtJ; experiment: MST; Monolith NT.115; RED-NHS-labeled CrtJ kept constant (200 or 500 nM), AerR varied from µM to nM; 20 mM Tris-HCl pH 8.0, 200 mM NaCl; AerR with bound hydroxyl-Cbl (OH-Cbl); conditions: both partners purified

| Molecule | EC50 [1] | EC50 [2] | EC50 (CrtJ) |
| --- | --- | --- | --- |
| SAerR (short isoform of AerR) (natural protein) | 2100 nM | 2100 nM | – |
| LAerR (long isoform of AerR) (natural protein) MNGVAELQTVLVNRMVELATGPELGAMDLLFDEFRAAHVPVEEMATHYIPEAARQIGAAWDSDRIGFAQVTIAISRLQELLHALQTLVTADSVGCANGATVLLIVPPGEQHTLGALIVAMELRRRGVSVRIVFAPGLSDLSRLMATTRFDAALITVGSMDRVEICAKLVKTLSSLTKGRMRVAIGGAIVSQRAEALARTGADLVTNDLSLVISEFSLV | – | – | 7800 ± 1200 nM |
